This is an account of results in paper PMC3343699.

Assay [1] deals with Recombinant Aα221–391 fragment corresponding to the human fibrinogen αC-connector (human). Description: optical trap-based force spectroscopy.
Assay [2] addresses Lys429Cys/Thr463Cys double mutant of the bovine Aα406–483 fragment, first fraction (Fr-1) (bovine). Description: SEC. Background: Size exclusion chromatography separates by hydrodynamic size, large species first.
Assay [3] shares this target. The assay can be described thus: SEC. This is another data set of the same source.
For assay [4] the target is unchanged. Description: SEC. The source holds these as a separate data set.
Assay [5] has as its target Recombinant Aα392–503 fragment corresponding to the N-terminal subdomain of the human fibrinogen αC-domain (human). The assay can be described thus: optical trap-based force spectroscopy.

Read-outs that look alike come from different tables or passages of the source.

With “Recombinant Aα504–610 fragment corresponding to the C-terminal subdomain of the human fibrinogen αC-domain (domain or fragment)”, in assay [1], the cumulative binding probability was 46% and the rupture force peak is 26 pN.
“Recombinant Aα392–610 fragment corresponding to the human fibrinogen αC-domain (domain or fragment)”: in assay [1], the cumulative binding probability worked out at 51% and the rupture force peak amounted to 22 pN.
Turning to “Lys429Cys/Thr463Cys double mutant of the bovine Aα406–483 fragment, first fraction (Fr-1) (domain or fragment)”, the oligomers (%) in assay [2] is 31.7%; in assay [3] it was 5.9%; in assay [4], 12.4%.
Turning to “Recombinant Aα392–503 fragment corresponding to the N-terminal subdomain of the human fibrinogen αC-domain (domain or fragment)”, in assay [5], the cumulative binding probability was 67%, the rupture force peak 1 worked out at 16 pN, the rupture force peak 2 is 32 pN and the rupture force peak 3 was found to be 48 pN.
